Results taken from US10227575B2, “Multi-domain enzymes having cutinase activity, compositions comprising same and uses thereof” (OZYMES, priority 2015, dated 2019).

What was measured:
[1] = KrCUT activity in the presence of chelating agents; format: biochemical
[2] = pH optimum in Universal Buffer; format: biochemical; settings: pH 5-11, p-nitrophenyl butyrate
Description: Esterase activity was determined by monitoring the formation of pNP at 410 nm from various pNP-esters using a Beckman UV spectrophotometer (model DU 640) (21). Substrates were dissolved in isopropanol and were added to 50 mM sodium phosphate buffer pH 8.0 to give 10% (v/v) total isopropanol concentration in a 1 mL reaction volume. pNP-butyrate was used at a final concentration of 1.2 mM. For pNP-caprylate, myristate and palmitate, the final concentration ranged from 0.1 to 0.5 mM. The reaction (1 mL) was started by adding an appropriate amount of enzyme. One enzyme unit (U) is defined as the amount of enzyme that produced 1 μmol of product (pNP) per min; specific activity is expressed as U/mg protein. A molar extinction coefficient of 15 mM^−1 cm^−1 for pNP is used for calculating enzyme activity.
Universal Buffer solutions were prepared according to Britton and Robinson (Surinenaite et al., 2002), having the selected pH value from 5-11. Activity of KrCUT and KrCUT189 were measured at the indicated pH, using p-nitrophenyl butyrate as substrate as described in Example 1, section 1.6). Curves were obtained by plotting values of activity against pH.

[3] = Polymer binding test, cellulose
Description: Different polymers (cellulose, PLA, PCL, and PHB) were tested to evaluate the ability of KrCUT and KrCUT189 to bind these materials. Binding assays for PCL and PLA could not be performed since both polymers were degraded by the enzymes.

[4] = Hydrolysis of cutin, GC-MS of released monomers; format: biochemical, Apple (Golden Delicious)
Description: Apple (Golden Delicious) cutin was used as substrate. The outer layer of the fruit was peeled by hand and cutin preparation carried out as described by Gerard et al. (1993) with minor modifications. Discs of apple peels were incubated at 50° C. in oxalate buffer [(oxalic acid (4 g/L)/ammonium oxalate (16 g/L)] for 16 h and then collected and washed several times with deionized water. The sample was treated with 0.5% Novozymes Aspergillus niger pectinase (Sigma P2736) in 100 mM phosphate citrate buffer pH 5.8 for 16 h. The cutin sheets were washed with ethanol, followed by several washes with chloroform, and then incubated in chloroform at 45° C. for 16 h, and finally dried to constant weight. The cutin was ground in a Cyclone sample Mill (UDY Corporation, Fort Collings, Colo., USA).
A typical reaction mixture (2 mL) contained 20 mg cutin and an appropriate amount of cutinase in 25 mM sodium phosphate buffer, pH 8.0. The mixture was incubated in a water bath at 37° C. with gentle shaking for 16 h. Assays were conducted in duplicate. At the end of the reaction, the remaining cutin was removed by centrifugation (10 min, 5000 rpm). The resulting solution was acidified with hydrochloric acid and cutin monomers extracted with chloroform/methanol, according to Bligh and Dyer (1959). The organic phase was removed by evaporation under an air stream and the dried residue dissolved in 1 mL chloroform/methanol (85:15) and used for further derivatization. Trimethylsilylation of cutin monomers was performed with BSTFA [N, O-bis(trimethylsilyl) trifluoroactamide] and TMCS (trimethylchlorosilane) provided by the supplier in the ratio 99:1 (Supelco, Bellefonte, USA) at 70° C. for 3 h, and the composition of the mixture determined by GC-MS.
Cutin monomers were identified by GC-MS on an Agilent 6890 gas chromatography system coupled to a 5973 quadrupole mass spectrometer. 1 μL was injected under splitless condition on a 50 m×0.20 mm×0.33 μm DB-5MS capillary column (Agilent). The oven temperature program was 70° C. (for 1.39 min) to 136° C. at 64° C./min and to 290° C. at 2.5° C./min (for 55 min). Helium was used as carrier gas. The temperature at the injection port was 250° C. The detector was run in El mode at 70 eV. Masses were scanned between 50 and 650 amu.
Components were identified by comparison of the MS spectra of their trimethylsilyl (TMSi) derivatives, as methyl ester TMSi ether or as TMSi ester TMSi ether, with published spectra (Kallio et al., 2006; Philipps et al., 2002).
To measure cutinase activity, assays of cutin hydrolysis were performed as described in Example 1, section 1.7 at two different enzyme concentrations. Characteristic cutin components, C16 and C18 hydroxyl fatty acids, were identified by GC-MS analysis.

B1: KrCUT: mature Kineococcus radiotolerans cutinase, amino acids 34-294 of SEQ ID NO: 1; SEQ ID NO: 6 (protein)
chain: ATCSDVDVVFARGTGETPGLGVVGGPFVRSLTGELSDRTVTSHAVDYAASSSQASAGPGATAMSAHVREVAAACPSTRFVLGGYSQGATVTDIALGIRTGTTTGTPVPAELAGRVAAVVVFGNPLGLSGRTIATASSTYGPKSKDYCNSSDSVCGSAPKTGTGGHLSYASNGSTTDGARFAAGLVRAAGTPTTPTPTPTPTPVPTTCVRDSTRDHVAADRAVSLYGRAYARGSRDSLGATSSYNVVSLQQVEGGWRLVTAC
modifications: Kineococcus radiotolerans; (1)..(261) KrCUT (lacking residues 1-33 of ssKrCUT)
Question: What does the source list for B1?
Answer: effect of EDTA on KrCUT activity ([1]; EDTA 10% w/v): does not inhibit; activity retained in the presence of GLDA ([1]; GLDA 5% w/v): 100%; pH optimum [2]: 8; binding to cellulose [3]: did not bind; 10,16-dihydroxyhexadecanoic acid released, Area (%) ([4]; 20 Units cutinase): 39.25 ± 2.5%; 18-hydroxy-octadeca-9,12-dienoic acid released, Area (%) ([4]; 20 Units cutinase): 18.0 ± 6.3%; 9,10,18-trihydroxyoctadec-9 enoic acid released, Area (%) ([4]; 200 Units cutinase): 6.25 ± 0.40%; 9,10,18-trihydroxyoctadec-10,12-dienoic acid released, Area (%) ([4]; 200 Units cutinase): 13.25 ± 0.40%; 9,10,18-trihydroxyoctadecanoic acid released, Area (%) ([4]; 200 Units cutinase): 25.55 ± 0.10%; 9,16-dihydroxyhexadecanoic acid released, Area (%) ([4]; 200 Units cutinase): 3.81 ± 0.62%; 10,16-dihydroxyhexadecanoic acid released, Area (%) ([4]; 200 Units cutinase): 27.74 ± 0.41%; 18-hydroxy-octadeca-9,12-dienoic acid released, Area (%) ([4]; 200 Units cutinase): 2.22 ± 0.13%
